Measured values taken from patent US20230012273A1 (Boehringer Ingelheim, published 2023).
Numbering of substitutions follows the chain as printed.

B1: Antibody A1 (antibody, human IgG1, kappa, L234A L235A, V domains shown)
VH: EVQLVESGGGLVQPGGSLRLSCAASGFTLSSYDMHWVRQAPGKGLEWVSAIGTAGDTYYTGSVKGRFTISRENAKNSLYLQMNSLRADDTAVYYCVRGGVWDDAFDIWGQGTMVTVSS
VL: DIQMTQSPSSLSASVGDRVTITCRASQGINNYAAWFQQKPGKAPKSLIYTASSLHSGVPSKFSGSGSGTDFTLTISSLQPEDFATYYCQQYVSYPYTFGQGTKLEIKR
B2: Antibody A2 (antibody, human IgG1, kappa, L234A L235A, V domains shown)
VH: B1 VH with P41T, D88A
VL: B1 VL
B3: Antibody A3 (antibody, human IgG1, kappa, L234A L235A, V domains shown)
VH: B1 VH with P41T, D88S
VL: B1 VL
B4: Antibody A5 (antibody, human IgG1, kappa, L234A L235A, V domains shown)
VH: B1 VH with D88S
VL: B1 VL
B5: Antibody A6 (antibody, human IgG1, kappa, L234A L235A, V domains shown)
VH: B1 VH with D88E
VL: B1 VL
B6: Antibody A7 (antibody, human IgG1, kappa, L234A L235A, V domains shown)
VH: B1 VH with P41T, D88G
VL: B1 VL
B7: Antibody A8 (antibody, human IgG1, kappa, L234A L235A, V domains shown)
VH: B1 VH with D88G
VL: B1 VL
B8: Antibody A9 (antibody, human IgG1, kappa, L234A L235A, V domains shown)
VH: B1 VH
VL: B1 VL with G28D, A33L
B9: Antibody A12 (antibody, human IgG1, kappa, L234A L235A, V domains shown)
VH: B1 VH with P41T, D88S
VL: B1 VL with G28D, A33L
B10: Antibody A13 (antibody, human IgG1, kappa, L234A L235A, V domains shown)
VH: B1 VH with D88A
VL: B1 VL with G28D, A33L
B11: Antibody A14 (antibody, human IgG1, kappa, L234A L235A, V domains shown)
VH: B1 VH with D88S
VL: B1 VL with G28D, A33L
B12: Antibody A15 (antibody, human IgG1, kappa, L234A L235A, V domains shown)
VH: B1 VH with D88E
VL: B1 VL with G28D, A33L
B13: Antibody A16 (antibody, human IgG1, kappa, L234A L235A, V domains shown)
VH: B1 VH with D88G
VL: B1 VL with G28D, A33L
B14: Antibody A11 (antibody, human IgG4 S228P, kappa)
heavy: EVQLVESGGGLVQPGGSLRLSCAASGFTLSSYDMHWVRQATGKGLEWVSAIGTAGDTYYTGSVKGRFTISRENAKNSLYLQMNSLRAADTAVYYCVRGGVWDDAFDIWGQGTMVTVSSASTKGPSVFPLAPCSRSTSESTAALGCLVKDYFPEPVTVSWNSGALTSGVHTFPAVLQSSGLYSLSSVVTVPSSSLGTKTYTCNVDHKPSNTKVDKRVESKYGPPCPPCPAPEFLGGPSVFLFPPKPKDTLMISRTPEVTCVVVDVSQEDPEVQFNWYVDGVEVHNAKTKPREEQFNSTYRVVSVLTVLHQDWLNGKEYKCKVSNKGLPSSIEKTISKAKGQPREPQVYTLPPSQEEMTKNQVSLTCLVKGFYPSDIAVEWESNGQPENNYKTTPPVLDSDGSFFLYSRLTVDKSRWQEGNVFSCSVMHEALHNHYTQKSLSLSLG
light: DIQMTQSPSSLSASVGDRVTITCRASQDINNYLAWFQQKPGKAPKSLIYTASSLHSGVPSKFSGSGSGTDFTLTISSLQPEDFATYYCQQYVSYPYTFGQGTKLEIKRTVAAPSVFIFPPSDEQLKSGTASVVCLLNNFYPREAKVQWKVDNALQSGNSQESVTEQDSKDSTYSLSSTLTLSKADYEKHKVYACEVTHQGLSSPVTKSFNRGEC

Key:
[1] = biological target: T1, Human SIRPαV2 (CAA71403.1), Extracellular Domain + His-Tag (human, UniProt P78324 31-373); assay: SPR, antibody captured on Protein A/G, ECD-His analyte, 1:1 fit
T1 construct: also called huSIRPαV2; hSIRPαV2; not shown: His-Tag
Outline: (§1)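 Analyte was His-tagged SIRPα extracellular domain in dilution series, associating 300 s and dissociating 600 s at 30 μl/min. Ligand was antibody captured (~240 RU) on immobilized Protein A/G (~3000 RU). Running buffer HBS-EP+.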

[2] = biological target: T2, Human SIRPαV1 (NP_542970.1), Extracellular Domain + His-Tag (human, UniProt P78324 31-373); assay: as above
T2 construct: also called huSIRPαV1; hSIRPαV1; not shown: His-Tag
Outline: as §1

[3] = biological target: T3, cynoSIRPα (NP_001271679), Extracellular Domain + His-Tag (cynomolgus monkey); assay: SPR, antibody captured on Protein A/G, ECD-His analyte, steady-state fit
T3 construct: also called CySIRPα NP_001271679; not shown: His-Tag
T3 chain: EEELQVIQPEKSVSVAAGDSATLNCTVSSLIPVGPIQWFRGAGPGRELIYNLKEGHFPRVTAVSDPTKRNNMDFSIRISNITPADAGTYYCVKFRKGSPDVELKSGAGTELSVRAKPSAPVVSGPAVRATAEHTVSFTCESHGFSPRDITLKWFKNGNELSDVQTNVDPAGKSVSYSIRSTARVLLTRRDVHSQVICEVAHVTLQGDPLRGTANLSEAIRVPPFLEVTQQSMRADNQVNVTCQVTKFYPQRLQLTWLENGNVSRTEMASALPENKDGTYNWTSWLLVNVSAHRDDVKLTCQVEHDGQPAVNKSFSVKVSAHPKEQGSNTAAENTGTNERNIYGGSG
Method: (§2) The binding kinetics of anti-SIRPα antibodies to various SIRPα analytes are determined by surface plasmon resonance (SPR) using a Biacore 8K+(Cytiva). 1×HBS-EP+(Cytiva) is used as running buffer and for all the dilutions unless stated otherwise. The Series S CM5 sensorchip is activated with a 1:1 mixture of 0.1 M NHS (N-hydroxysuccinimide) and 0.4 M EDC (1-Ethyl-3-(3-dimethylaminopropyl) carbodiimide hydrochloride) for 420 seconds at a flow rate of 10 μl/min and immobilized with Protein A/G (Thermo Scientific, 10 μg/ml in 10 mM acetate pH 4.5) for 420 seconds at a flowrate of 10 μl/min resulting in approximately 3000 RU of Protein A/G on the surface. The sensorchip is then deactivated with 1 M ethanolamine HCl pH 8.5 for 420 seconds at a flowrate of 10 μl/min.
(§3) Antibodies (approximately 1 ug/ml) are captured on the Protein A/G surface for 60 seconds at a flowrate of 10 μl/min resulting in capture levels of approximately 240 RU. Dilutions of each SIRP protein (Extracellular Domain+His-Tag, with the concentrations as indicated) are injected as analytes over the captured antibody for 300 seconds of association at a flowrate of 30 μl/min, followed by a dissociation for 600 seconds.
(§4) The above procedures are used to measure binding properties of antibodies of the present disclosure. For each analyte used, the highest concentration was as indicated in Example 3 (see Table 36).

[4] = biological target: T4, cynoSIRPα (EGM_02252), Extracellular Domain + His-Tag (cynomolgus monkey); assay: as above
T4 construct: also called CySIRPα EGM_02252; not shown: His-Tag
T4 chain: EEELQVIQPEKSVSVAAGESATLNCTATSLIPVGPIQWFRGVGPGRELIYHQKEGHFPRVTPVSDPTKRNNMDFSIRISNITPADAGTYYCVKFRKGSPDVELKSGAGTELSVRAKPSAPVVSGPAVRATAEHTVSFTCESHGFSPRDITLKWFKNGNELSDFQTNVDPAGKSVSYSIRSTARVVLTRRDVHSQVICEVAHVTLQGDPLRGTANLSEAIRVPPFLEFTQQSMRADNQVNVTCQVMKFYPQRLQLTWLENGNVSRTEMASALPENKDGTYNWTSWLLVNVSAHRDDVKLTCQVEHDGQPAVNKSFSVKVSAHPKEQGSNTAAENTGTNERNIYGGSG
Method: as §2, §3, §4

[5] = biological target: T5, cynoSIRPα (XP_015313155), Extracellular Domain + His-Tag (cynomolgus monkey); assay: as above
T5 construct: also called CySIRPα XP_015313155; not shown: His-Tag
T5 chain: T3 chain with A62P, V163F, L185V
Method: as §2, §3, §4

T1 sequence (P78324 other isoform, or with tags, fused parts or gaps): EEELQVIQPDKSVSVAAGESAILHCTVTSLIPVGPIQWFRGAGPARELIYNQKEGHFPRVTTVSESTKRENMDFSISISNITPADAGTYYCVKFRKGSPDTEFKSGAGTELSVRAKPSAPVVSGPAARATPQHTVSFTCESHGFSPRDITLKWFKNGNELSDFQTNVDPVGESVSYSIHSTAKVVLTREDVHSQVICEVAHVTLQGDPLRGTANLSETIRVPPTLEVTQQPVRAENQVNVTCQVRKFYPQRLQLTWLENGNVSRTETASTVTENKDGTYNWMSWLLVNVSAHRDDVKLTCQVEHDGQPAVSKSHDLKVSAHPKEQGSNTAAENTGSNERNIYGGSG
T2 sequence (P78324 other isoform, or with tags, fused parts or gaps): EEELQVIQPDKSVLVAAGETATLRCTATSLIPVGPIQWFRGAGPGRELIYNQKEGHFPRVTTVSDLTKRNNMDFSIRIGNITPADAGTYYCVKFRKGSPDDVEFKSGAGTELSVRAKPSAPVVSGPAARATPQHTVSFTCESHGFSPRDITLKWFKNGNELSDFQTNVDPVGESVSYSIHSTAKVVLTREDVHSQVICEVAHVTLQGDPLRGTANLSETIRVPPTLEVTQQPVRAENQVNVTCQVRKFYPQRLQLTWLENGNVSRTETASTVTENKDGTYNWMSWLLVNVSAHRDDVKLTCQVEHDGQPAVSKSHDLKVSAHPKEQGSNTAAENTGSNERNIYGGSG

| Binder | Kd [1] | koff [1] | kon [1] | Kd [2] | koff [2] | kon [2] | Kd [3] | Kd [4] | Kd [5] |
| --- | --- | --- | --- | --- | --- | --- | --- | --- | --- |
| B1 | 18.6 nM | 0.0162 s⁻¹ | 869000 M⁻¹ s⁻¹ | 8.6 nM | 0.00625 s⁻¹ | 727000 M⁻¹ s⁻¹ | 780 nM | 523 nM | 427 nM |
| B2 | 20.9 nM | 0.0184 s⁻¹ | 883000 M⁻¹ s⁻¹ | 9.39 nM | 0.00685 s⁻¹ | 729000 M⁻¹ s⁻¹ | 887 nM | 556 nM | 469 nM |
| B3 | 19.6 nM | 0.0178 s⁻¹ | 907000 M⁻¹ s⁻¹ | 9.06 nM | 0.00661 s⁻¹ | 730000 M⁻¹ s⁻¹ | 857 nM | 560 nM | 480 nM |
| B4 | 17.8 nM | 0.0162 s⁻¹ | 909000 M⁻¹ s⁻¹ | 8.75 nM | 0.00598 s⁻¹ | 684000 M⁻¹ s⁻¹ | 665 nM | 517 nM | 415 nM |
| B5 | 18.1 nM | 0.0171 s⁻¹ | 947000 M⁻¹ s⁻¹ | 8.28 nM | 0.00634 s⁻¹ | 766000 M⁻¹ s⁻¹ | 684 nM | 521 nM | 420 nM |
| B6 | 20.4 nM | 0.019 s⁻¹ | 933000 M⁻¹ s⁻¹ | 9.38 nM | 0.00672 s⁻¹ | 716000 M⁻¹ s⁻¹ | 741 nM | 588 nM | 466 nM |
| B7 | 18.8 nM | 0.0162 s⁻¹ | 859000 M⁻¹ s⁻¹ | 8.53 nM | 0.00604 s⁻¹ | 708000 M⁻¹ s⁻¹ | 639 nM | 520 nM | 415 nM |
| B8 | 8.25 nM | 0.00652 s⁻¹ | 791000 M⁻¹ s⁻¹ | 7.34 nM | 0.00363 s⁻¹ | 495000 M⁻¹ s⁻¹ | 346 nM | 230 nM | 174 nM |
| B9 | 8.96 nM | 0.00689 s⁻¹ | 769000 M⁻¹ s⁻¹ | 7.83 nM | 0.00378 s⁻¹ | 482000 M⁻¹ s⁻¹ | 384 nM | 247 nM | 195 nM |
| B10 | 8.36 nM | 0.00635 s⁻¹ | 760000 M⁻¹ s⁻¹ | 7.28 nM | 0.00352 s⁻¹ | 484000 M⁻¹ s⁻¹ | 330 nM | 223 nM | 177 nM |
| B11 | 7.95 nM | 0.00648 s⁻¹ | 816000 M⁻¹ s⁻¹ | 8.13 nM | 0.00397 s⁻¹ | 488000 M⁻¹ s⁻¹ | 316 nM | 222 nM | 176 nM |
| B12 | 7.91 nM | 0.00671 s⁻¹ | 848000 M⁻¹ s⁻¹ | 7.06 nM | 0.00371 s⁻¹ | 526000 M⁻¹ s⁻¹ | 317 nM | 224 nM | 174 nM |
| B13 | 8.22 nM | 0.0063 s⁻¹ | 766000 M⁻¹ s⁻¹ | 7.98 nM | 0.00377 s⁻¹ | 472000 M⁻¹ s⁻¹ | 306 nM | 224 nM | 174 nM |
| B14 |  |  |  |  |  |  | 410 nM | 298 nM | 204 nM |
